The results in this text go back to US20210101945A1 (University of Washington, published 2021).

Data set [1] deals with the molecule itself. As to the kind of experiment: SAXS against the parallel homodimer design model. On the procedure:
(§1) Samples were purified by gel filtration in 20 mM Tris pH 8.0 at room temperature, 150 mM NaCl and 2% glycerol; fractions preceding the void volume of the column were used as blanks for buffer subtraction. Scattering measurements were performed at the SIBYLS 12.3.1 beamline at the Advanced Light Source. The X-ray wavelength (λ) was 1 Å, and the sample-to-detector distance of the Mar 165 detector was 1.5 m, corresponding to a scattering vector q (q=4πsin θ/λ, where 2θ is the scattering angle) range of 0.01 to 0.3 Å−1. Data sets were collected using exposures of 0.5, 1, and 6 seconds at 12 keV. […] For each sample, data was collected for at least two different concentrations to test for concentration-dependent effects; “high” concentration samples ranged from 3-7 mg/ml and “low” concentration samples ranged from 1-2 mg/ml. […] FoXS was used to compare design models to experimental scattering profiles and calculate quality of fit (X) values. For the design models, extra residues introduced by the expression vector were added to the computational models using Rosetta™ Remodel so that the design sequence matched that of the experimental sample. To capture the conformational flexibility of these extra tag residues in solution, 100 independent models were generated per design. […]

Data set [2] concerns the molecule itself. As to the kind of experiment: SAXS against the homotetramer design model. On the procedure: (§2) Samples were purified by gel filtration in 20 mM Tris pH 8.0 at room temperature, 150 mM NaCl and 2% glycerol; fractions preceding the void volume of the column were used as blanks for buffer subtraction. Scattering measurements were performed at the SIBYLS 12.3.1 beamline at the Advanced Light Source. The X-ray wavelength (λ) was 1 Å, and the sample-to-detector distance of the Mar 165 detector was 1.5 m, corresponding to a scattering vector q (q=4πsin θ/λ, where 2θ is the scattering angle) range of 0.01 to 0.3 Å−1. Data sets were collected using exposures of 0.5, 1, and 6 seconds at 12 keV. […] For each sample, data was collected for at least two different concentrations to test for concentration-dependent effects; “high” concentration samples ranged from 3-7 mg/ml and “low” concentration samples ranged from 1-2 mg/ml. […] FoXS was used to compare design models to experimental scattering profiles and calculate quality of fit (X) values. For the design models, extra residues introduced by the expression vector were added to the computational models using Rosetta™ Remodel so that the design sequence matched that of the experimental sample. To capture the conformational flexibility of these extra tag residues in solution, 100 independent models were generated per design. These 100 models were then clustered by Rosetta™, and to avoid bias, the cluster center of the largest cluster was selected as the single representative model used for fitting to experimental data.

Data set [3] deals with the molecule itself. As to the kind of experiment: oligomeric state of the purified design, and SAXS; antiparallel homodimer. The method, then: as §2
Data set [4] deals with the molecule itself. As to the kind of experiment: X-ray crystal structure superimposed on the design model; homotrimer. From the text:
(§3) The optimum conditions for crystallization of the different designs were found as follows: 2L6HC3_6, 0.2 M Sodium Fluoride, 0.1 M MES pH 5.5 and 20% PEG 400; 2L6HC3_12, 2.2 M Sodium Malonate pH 5.0; 2L6HC3_13, 0.06 M Citric acid, 0.04 M BIS-TRIS propane pH 4.1 and 16% PEG 3,350; 2L8HC4_12, 0.2 M Sodium Acetate trihydrate, 0.1 M Tris hydrochloride pH 8.5 and 30% PEG 4,000; 3L6HC2_2, 0.1 M Sodium Acetate trihydrate pH 4.5 and 3.0 M Sodium chloride; 2L4HC2_23, 0.2 M Lithium chloride and 20% PEG 3,350; 2L4HC2_9, 0.1 M Sodium citrate tribasic dehydrate […]; 2L4HC2_11, 0.1 M Tris pH 8.5 and 2.0 M Ammonium sulfate; 5L6HC3_1, 0.1 M acid pH 3.5 and 3.0 M Sodium chloride; and 2L4HC2_24 was concentrated to 20 mg/ml and crystallized in 0.1 M Citric acid pH 3.5, 2.0 M Ammonium sulfate. […]
(§4) The crystals of the designed proteins were placed in a reservoir solution containing 15 to 20% (v/v) glycerol, and then flash-cooled in liquid nitrogen. […] All the design structures were determined by the molecular-replacement method with the program PHASER within the Phenix suite using the design models as the initial search model. […] Root-mean-square deviation differences from ideal geometries for bond lengths, angles and dihedrals were calculated with Phenix. The overall stereochemical quality of all final models was assessed using the program MOLPROBITY.

Data set [5] deals with the molecule itself. As to the kind of experiment: X-ray crystal structure; homodimer.
From the text: as §3, §4

Data set [6] deals with the molecule itself. As to the kind of experiment: X-ray crystal structure; homotrimer.
From the text: as §3, §4

Data set [7] deals with the molecule itself. As to the kind of experiment: X-ray crystal structure (3.8 Å) and SAXS; homotetramer. The method, then: The crystals of the designed proteins were placed in a reservoir solution containing 15 to 20% (v/v) glycerol, and then flash-cooled in liquid nitrogen. The X-ray data sets were collected at the Berkeley Center for Structural Biology beamlines 5.0.1, 8.2.1 and 8.2.2 of the Advanced Light Source at Lawrence Berkeley National Laboratory (LBNL). Data sets were indexed and scaled using HKL2000. All the design structures were determined by the molecular-replacement method with the program PHASER within the Phenix suite using the design models as the initial search model. The atomic positions obtained from molecular replacement and the resulting electron density maps were used to build the design structures and initiate crystallographic refinement and model rebuilding. Structure refinement was performed using the phenix.refine program. Manual rebuilding using COOT and the addition of water molecules allowed construction of the final models. Root-mean-square deviation differences from ideal geometries for bond lengths, angles and dihedrals were calculated with Phenix. The overall stereochemical quality of all final models was assessed using the program MOLPROBITY.
Samples were purified by gel filtration in 20 mM Tris pH 8.0 at room temperature, 150 mM NaCl and 2% glycerol; fractions preceding the void volume of the column were used as blanks for buffer subtraction. […]

Data set [8] deals with the molecule itself. As to the kind of experiment: SAXS, design model fit to the scattering data with FoXS. On the procedure:
as §1

Data set [9] concerns the molecule itself. As to the kind of experiment: oligomeric state and CD of the synthetic peptide in PBS; self-association.
Data set [10] concerns the molecule itself. As to the kind of experiment: characterisation of the purified design (method not given); self-association.
Data set [11] deals with the molecule itself. As to the kind of experiment: X-ray crystal structure superimposed on the design model; homodimer.
From the text: as §3, §4

B1: 3L6HC2_4 (designed binder)
chain: SALEKIAKLIIEAARLSAELARRAARASAEMARKAIEAVSEERGSESLLKIVADLIVESQEAVVRLIIESQQIAAKLAEDLIRAAKEAASDESKMEEVAKEVQERAERAARDIERKLKRVLEELDYKLKESRDGS
notes: Monomer subunit of a designed parallel right-handed six-helix C2 homodimer; entries pair it with itself
Turning to B1, in [1], the binding result was “binds”.

B2: 5L8HC4_1 (designed binder)
chain: GSKVEELLRKSEEAAERAKRELERLLEESERIVAEAQALAEKYESQKVWVRILIELIRATNRMLAEIARILLEMIEVTNRMIAESTK
notes: Monomer subunit of a designed untwisted C4 homotetramer; entries pair it with itself
As for B2, the binding result in data set [2] is “binds”.

B3: 2L6Hanti_4 (designed binder)
chain: SRRLELAARINKAAAENARSAIEIQELAARLADELSSSKKVIDFARATTEVLRMSVKLLKLSLEMLEEAARQDGRSEEVRYLAEESKKILEEARKALEDADRLTKRIEEEGS
notes: Monomer subunit of a designed left-handed antiparallel homodimer; entries pair it with itself
As to B3, the binding result in [3] was “binds”.

B4: 2L6HC3_13 (designed binder)
chain: GTKYELRRALEELEKALRELKKSLDELERSLEELEKNPSEDALVENNRLNVENNKIIVEVLRIIAEVLKINAKSD
notes: Monomer subunit of a designed left-handed C3 homotrimer; entries pair it with itself; also called AAXX
As to B4, the binding result in [4] is “binds”.

B5: 5L8HC4_2 (designed binder)
chain: SEQLKEIARILIKLIESLTRFILEVARILIELIEETQRLIVASTDSDESELERIARESKKKAKKALDELKKIVDDQRREAKKAIEELEYDGS
notes: as for B2
With B5, the binding result in data set [2] was “binds”.

B6: 5L8HC4_6 (designed binder)
chain: GSKDTEDSRKIWEDIRRLLEEARKNSEEIWKEITKNPDTSEIARLLSEQLLEIAEMLVRIAELLSRQTEQR
notes: as for B2
Consider B6, for which the binding result in data set [2] is reported as “binds”.

B7: 2L4HC2_24 (designed binder)
chain: GTDTDELLRLAKEQAELLKEIKKLVEEIARLVKEIQEDPSDELLKTLAELVRKLKELVEDMERSMKEQLYIIKKQKS
notes: Monomer subunit of a designed left-handed C2 homodimer; entries pair it with itself
For the protein B7, in data set [5], the binding result is listed as “binds”.

B8: 2L6HC3_12 (designed binder)
chain: GTKYELRRALEELEKALQELREMLRKLKESLEELKKNPSEDALVRNNELIVEVLRVIVEVLSIIARVLEINARSD
notes: Monomer subunit of a designed left-handed C3 homotrimer; entries pair it with itself
Turning to B8, the binding result in [6] was “binds”.

B9: 2L6HC3_6 (designed binder)
chain: GTKYKIKETLKRLEDSLRELRRILEELKEMLERLEKNPDKDVIVEVLKVIVKAIEASVENQRISAENQKALAESD
notes: Monomer subunit of a designed left-handed C3 homotrimer; entries pair it with itself; also called XXBB
For B9, the binding result in data set [4] is given as “binds”.

B10: 2L6Hanti_5 (designed binder)
chain: TDVLRIAAENLKAAVELAKAALEMAKSAIEIAKTLTEDDEALKFARAAAEVLRMAAKLLKLSIELARKAAEEEGSDDEVRYILDEARKQADELREALKKVDEIMKELDKRGS
notes: as for B3
B10: the binding result in [3] was “binds”.

B11: 2L4HC2_11 (designed binder)
chain: GSEDYKLREAQRELDKQRKDTEEIRKRLKEIQRLTDERTSTADELIKELREIIRRLQEQSEKLREIIEELEKIIRKR
notes: as for B7
For B11, the binding result in data set [5] was “binds”.

B12: 2L6Hanti_2 (designed binder)
chain: SEELRKAAENNELAVRLAEAALRMARSALHLFEENPSDEMLKFLELAMEVAKMAAELLKASLKMLKKAAEERGSDESVKYLADKSRDIMRQITEELKKLEEEAKRAQKRGS
notes: as for B3
With B12, in data set [3], the binding result was “binds”.

B13: 2L8HC4_12 (designed binder)
chain: GTAIEANSRMLKALIEIAKAIWKALWANSLLLEATSRGDTERMRQWAEEAREIYKEAKKIIDEADEIVKEAKERHD
notes: Monomer subunit of a designed left-handed C4 homotetramer; entries pair it with itself; also called lefthanded tetramer
Turning to B13, in data set [7], the binding result is “binds”.

B14: 2L6Hanti_3 (designed binder)
chain: SEKARIAVENLEAALRLNRAAAEMQKSAIKIMDDNRSDEKALRYLRLTTKVLRMSVELLRASLELAEKALREEGSDDSAEKVRKEAEEILKESTEILKEADKETKRADEEGS
notes: as for B3
With B14, the binding result in data set [3] was “binds”.

B15: 5L4HC2_12 (designed binder)
chain: GTETKKLVEEVERALRELLKTSEDLVRKVEKALRELLELIRRGGTKDKIEEKIRRVLEEIKRELERQKRKIEDVLRQIKEELYRS
notes: Monomer subunit of a designed untwisted C2 homodimer; entries pair it with itself
B15: in [8], the binding result is recorded as “binds”.

B16: 2L6Hanti_1 (designed binder)
chain: SDYLRLATEHNKLAVEANRLAIELAKSAVELAETDPSKTALEHAELAARLLEMMVQFTKAAQELTREAIRKEGRNEESEKVLRKSKEAYKESEKALEDARRLLDELRKKGS
notes: Monomer subunit (three helices) of a designed left-handed antiparallel homodimer; entries pair it with itself
B16: the binding result in [3] was “binds”.

B17: 2L6HC3_13_inner (peptide)
peptide: Ac-TERENNYRNEENNRKIEEEIREIKKEIKKNKERD-NH2
notes: Synthetic inner-ring-only peptide; reported as unfolded and monomeric in isolation; also called inner ring peptide of 2L6HC3_13
For B17, the binding result in data set [9] was “no binding”.

B18: 2L4HC2_9 (designed binder)
chain: GTSDYIIEQIQRDQEEARKKVEEAEERLERVKEASKRGVSSDQLLDLIRELAEIIEELIRIIRRSNEAIKELIKNQS
notes: Monomer subunit (helical hairpin) of a designed left-handed C2 homodimer; entries pair it with itself; Expressed in E. coli with a His tag (C-terminal, or N-terminal and thrombin-cleavable); Underlined residues are said to be optional, but the underlining is not visible
For the protein B18, in data set [10], the binding result was “binds”.

B19: 5L6HC3_1 (designed binder)
chain: SEELRAVADLQRLNIELARKLLEAVARLQELNIDLVRKTSELTDEKTIREEIRKVKEESKRIVEEAEEEIRRAKEESRYIADESRGS
notes: Monomer subunit of a designed untwisted C3 homotrimer; entries pair it with itself; also called untwisted trimer
Take B19: the binding result in data set [6] is “binds”.

B20: 2L4HC2_23 (designed binder)
chain: GTRTEIIRELERSLREQEELAKRLKELLRELERLQREGSSDEDVRELLREIKELVEEIEKLAREQKYLVEELKRQD
notes: as for B7
With B20, the binding result in data set [11] is on record as “binds”.

B21: 3L6HC2_7 (designed binder)
chain: SILELAHESNRRALEMASRANREAMKAAREMIRAASEAARRAGSSNDKDSLRMIEEALRLALRMIEETNKKAVRMVLENNRKMVEAEKKKLSEEEIKRIAKETEDRMREIARRASEEARRLAEEIKREADYRSGS
notes: as for B1
For the protein B21, the binding result in [1] is “binds”.
